Source: PMC3863973 (Nature Communications, 2013)
Substitutions are numbered along the chain they refer to.

B1: FLAG-tagged KaiC-WT (enzyme)
chain: MTSAEMTSPNNNSEHQAIAKMRTMIEGFDDISHGGLPIGRSTLVSGTSGTGKTLFSIQFLYNGIIEFDEPGVFVTFEETPQDIIKNARSFGWDLAKLVDEGKLFILDASPDPEGQEVVGGFDLSALIERINYAIQKYRARRVSIDSVTSVFQQYDASSVVRRELFRLVARLKQIGATTVMTTERIEEYGPIARYGVEEFVSDNVVILRNVLEGERRRRTLEILKLRGTSHMKGEYPFTITDHGINIFPLGAMRLTQRSSNVRVSSGVVRLDEMCGGGFFKDSIILATGATGTGKTLLVSRFVENACANKERAILFAYEESRAQLLRNAYSWGMDFEEMERQNLLKIVCAYPESAGLEDHLQIIKSEINDFKPARIAIDSLSALARGVSNNAFRQFVIGVTGYAKQEEITGLFTNTSDQFMGAHSITDSHISTITDTIILLQYVEIRGEMSRAINVFKMRGSWHDKAIREFMISDKGPDIKDSFRNFERIISGSPTRITVDEKSELSRIVRGVQEKGPES
B2: His-tagged KaiC-AA (enzyme)
chain: B1 chain with S431A, T432A
B3: His-tagged KaiC-AE (enzyme)
chain: B1 chain with S431A, T432E
B4: His-tagged KaiC-DA (enzyme)
chain: B1 chain with S431D, T432A

Key:
[1] = target: B3; experiment: pull-down
[2] = target: B2; experiment: pull-down
[3] = target: B4; experiment: pull-down
[4] = target: T1, His-tagged KaiC-WT (Synechococcus elongatus PCC 7942, UniProt Q79PF4 1-519); experiment: pull-down
T1 sequence: B1 chain

[5] = target: mutant KaiC (His-tagged KaiC-AA, -DE, -DA or -AE, as a group); experiment: pull-down
[6] = target: T2, FLAG-tagged KaiC-E318Q (Synechococcus elongatus PCC 7942, UniProt Q79PF4 1-519, E318Q); experiment: co-IP
T2 sequence: B1 chain with E318Q

[7] = target: B1; experiment: co-IP

Q: Which results are given for B1?
A: binding result [1]: binds; binding result [2]: binds; binding result [3]: binds; binding result [4]: binds; stoichiometry N [5]: 4 to 5

Q: B2 was tested. Which “stoichiometry N” value [6] did it give?
A: 1

Q: With B3 as the binder, how does the “stoichiometry N” value [7] read?
A: ~1

Q: B4 was tested. Which “stoichiometry N” value [7] did it give?
A: ~1
